Data as given in US20260226524A1, “GLUTAMINE SYNTHETASE MARKER FOR RECOMBINANT EXPRESSION” (priority 2023, published 2026).

How the values were obtained:
[1] = tested on: Chinese Hamster Ovary CHO-K1 (CCL-61) host cell; test: Flow cytometry analysis of GS expression via UnaG fluorescence in electroporated cell pools; assay type: cell-based; conditions: about 3 weeks post-seeding, MSX selection, FIGS. 3A-3B
Source text: Vector design: Nearly all selectable marker currently used in GS system is Cricetulus griseus-derived GS. To investigate whether the GS from other species further improve titer or screening efficiency, a set of vectors were designed as described below: • a sequence coding for an eel green fluorescent protein UnaG, a 2A self-cleaving peptide and a glutamine synthetase, placed under the control of the SV40 promoter; • two expression cassettes, in which the sequences coding for the heavy chain and light chain of a human anti-RANKL antibody denosumab were placed under the control of CMV promoters, respectively; • a sequence coding for a protein conferring resistance to ampicillin, for use in prokaryotic cells; and • a prokaryotic origin of replication.
(§1) The 2A self-cleaving peptide allowed relatively equal molar expression of the two products separated by it, namely, the green fluorescent protein UnaG and glutamine synthetase. After random integration, GS expression in each individual cell was evaluated by monitoring UnaG level using flow cytometry. Denosumab here served as the secreted reporter for assessing titers using selectable glutamine synthetase markers from different species. The vectors differed from one another by the GS-coding sequences, which were derived from Chinese hamster (Cricetulus griseus), koala (Phascolarctos cinerecus), vesper bat (Pipistrellus kuhlii), gerbil (Meriones unguiculatus), ostrich (Struthio camelus australis), junglefowl (Gallus gallus), pigeon (Columbia Livia), and snake (Pseudonaja textilis), respectively.
(§2) Electroporation and cell screening: Expression vectors described above were first linearized by the restriction endonuclease Pvul (there was one Pvul site in the ampicillin resistant gene). Then linearized vectors were introduced into the host cell using cell electroporator (Lonza Nuleofector 2b). The host cell was derived from ATCC wild-type Chinese Hamster Ovary CHO-K1 (CCL-61) and adapted to serum-free suspension culture at Shanghai ZhenGe Biotech Co. Ltd. 24 hours post electroporation, cell pools were plated into culture flasks or 96-well plates (approximately 1, 200 cells/well, 300 wells per condition) in the absence of or presence of MSX (50 μM).
Flow cytometry analysis of GS expression: About 3 weeks post-seeding, cell pools electroporated with GS gene from indicated species were analyzed using Attune NxT flow cytometer (FIGS. 3A-3C). […] As shown, when the GS from Chinese Hamster was used as the selectable marker, most tested cells (>98%) remained UnaG “negative” in the presence of the MSX, indicating low selection efficiency.

[2] = tested on: Chinese Hamster Ovary CHO-K1 (CCL-61) host cell; test: Bio-Layer Interferometry (Octet) analysis of denosumab expression in supernatants of cell pools selected with GS markers; assay type: cell-based; conditions: 50 μM MSX
Method: Vector design: Nearly all selectable marker currently used in GS system is Cricetulus griseus-derived GS.
as §1, with “After” for “The 2A self-cleaving peptide allowed relatively equal molar expression of the two products separated by it, namely, the green fluorescent protein UnaG and glutamine synthetase. After”
as §2

B1: vesper bat GS: Pipistrellus kuhlii glutamine synthetase, SEQ ID NO: 8 (nucleotide SEQ ID NO: 17), used as selectable marker (protein, listed as Pipistrellus kuhlii)
chain: MSTSASSQLNKGIKQMYMSLPQGDKVLAMYIWIDGTGEGLRCKTRTLDSEPKSIDELPEWNFDGSSTMQSEGSNSDMYLIPVAMFRDPFRKDPNKLIFCEVFKYNHKPAETNLRYTCKRIMDMVSNQHPWFGMEQEYTLMGTDGHPFGWPSNGFPGPQGPYYCGVGADRAYGRDIVEAHYRACLYAGIKIGGTNAEVMPAQWEFQIGPCEGIEMGDHLWVARFILHRVCEDFGVIATFDPKPIPGNWNGAGCHTNFSTKAMREENGLKYIEESIERLSKRHQYHIRAYDPKGGQDNARRLTGFHETSNINDFSAGVANRSASIRIPRAVGQEKKGYFEDRRPSANCDPFAVTEALIRTCLLNETGDEPFQYKN
modifications: Vesper bat GS
How did the “UnaG expression of cells (selection efficiency)” value [1] turn out when B1 was run?
The value was “significant amounts of cells showed positive UnaG expression”.

And the “pools expressed detectable denosumab (>0.125 ug/mL)” value ([2]; Day 20, among 300 seeded pools in 96-well plates, GS used as selectable marker)?
The value was 94.0%.

And the “median expression value of denosumab of positive pools” value ([2]; Day 20, positive pools (>0.125 ug/mL), Octet ProA biosensor)?
The value was 3.39 µg/mL.
